The source of these data is a protein production outcome set (Wang et al. 2014).

This series can be described thus: label from the status in PepcDB records.
Consider “MFLSRPLVRIASAADRFLHGETEVKIPVKHDDEIGRLARAFNYLSEEIVRLTRKEEWLREVLSSIREAIIVTNASGEIVLANPAASRLFMIEAARKRSIPVTNIEDAAMRELFERVQKRQSGIYNEELTAMTSKGKRTLKVTAVPVMRRGALFDGTVLVINDVTRLRNLERTRRDFVSSVSHELRTPLASIKGYTETLLEGAMNDPENATAFLNIIHQEAEQLTALVNDVLDLSRIESGKIAYSFEPVDVKPQLEKTAALFEPAAARKGVRIELNAPEGLPAVLADRSYFDIVVRNLIDNAIKYVDAESGRVRVSAYATGDSVSIEVADNGIGIPQADLDRIFERFYRVDKARSRELGGTGLGLSIVKHIVLAHKGKVEVRSRINRGTTFTVTLPVAGA”, for which the protein production result was “failed”.
For “MNVLRPALLTLACMLASPVMSDDLPSLGDASSSIVSPEQEFQLGRAWLSMLRNQVDAISDPQLKDFVESSVYRLAETSDLQDHRLAFILIRDAQINAFAAPGGVIGVNGGLLLNAQTEGEYAAVLAHELGHLIQRHFARGIEAQQRMQLPVMAAMLAGIVAAAAGAGDAGIAAIAGTQAAAIQNQLRFSRQNEQEADRVGVTNMVRAGYDPRSMPNMFERLARQYRYDGKPPEFLLTHPVTESRIADTRNRAEQYPQGGKEDSLRYQQMRARTQLLFEETPGMAGKRFRAMLNDNPKLDAARYGLAISQTRIGQLNDARDNLRQLLAKAPNDVAYNLAQVELDITANRLPDADQRLKKMLAQFPSSYPLKQVRADLMLKMGKPQESEKILDDLSKARPLDPDVWNRLAEVRSLTNNAIGVHQARAEYLSLTGDYQAAIEQLDFAKRRAGGNFQLAARLDARQQEIRQQEKMVKEMFR” the value was “failed”; for “MLDPFSEKAKELLKEFGSMNEFLQAIPSLVDIEEVMNRLKFAKESEISEDILNIEDIRDLASFYAQIGALAYSPYGLELELVKKANLRIYTERIRRRRKIRSDEIGIEVKIAVEFPENDIKTLEKVYGGLPEYIVSLREFLDLVPDEKLSSYYVYDGNVYLRKDDLLKVWSKAFERNVEKAVNIIYEIRDELPEFYRRLAGEIRSFAEKEFSDKFREVQAGELKHHLFPPCVKNALRGVPQGMRNYAITVLLTSFLSYARICPNPPRRNVKIRDCIKDMRVITEEILPIIIEAGNRCSPPLFEDQPNEIKNIWYHLGFGYTANPTLEDSGNSTWYFPPNCDKIKANAPQLCTPDKHCRYIRNPLTYYLRRLYLEEKRRAKHADEGSDKGGKERILQLEHHHHHH”, “failed”; for “ISTVSGKVERLISFDIAKRWYLRDIAERMYTSESLIKKKLQDENTCFSKILLASRMSMARRLLELRQIPLHTIAEKCGYSSTSYFINTFRQYYGVTPHQFAQHSPGT”, “failed”.
Next, “MQILQTFVQSIQGVMTIIVMIAVGYLLARWGWFNESATKLIARLVTQIALPAYMIATITKQFTAHKLLSTLPGLRFPVLNMAILFGISFGVMRALNIKKSHRGLFASMFLNSNTVFIGLPVNQALFGNSALPYVLVYYMANTTIFWTLGVYLIQRDGTGTAKFDLKQTLTKIFSPPLLGFMIGVLLVLGNIHVPKFLMDDFSYIGGLTIPLSMIFIGISMANAGLSSMRFDRDSLGILLGRFILAPVLMTLMLIPMSIPLEMKQVFILQSAMPVMTNAPVVSKLYGADADYAAVMVTETTLLSLIVIPILMVIVQANFIR”: “failed”.
For “PMEDEPTSKKLKTEDSLMPEEEFLRRNKGPVSIKVQVPNMQDKTEWKLNGQVLVFTLPLTDQVSVIKVKIHEATGMPAGKQKLQYEGIFIKDSNSLAYYNMANGAVIHLALKERGGRKK” the value was “failed”; for “MEELSSVGEQVFAAECILSKRLRKGKLEYLVKWRGWSSKHNSWEPEENILDPRLLLAFQKKEHEKEVQNRKRGKRPRGRPRKLTAMSSCSRRSKLKEPDAPSKSKSSSSSSSSTSSSSSSDEEDDSDLDAKRGPRGRETHPVPQKKAQILVAKPELKDPIRKKRGRKPLPPEQKATRRPVSLAKVLKTARKDLGAPASKLPPPLSAPVAGLAALKAHAKEACGGPSAMATPENLASLMKGMASSPGRGGISWQSSIVHYMNRMTQSQAQAASRLALKAQATNKCGLGLDLKVRTQKGELGMSPPGSKIPKAPSGGAVEQKVGNTGGPPHTHGASRVPAGCPGPQPAPTQELSLQVLDLQSVKNGMPGVGLLARHATATKGVPATNPAPGKGTGSGLIGASGATMPTDTSKSEKLASRAVAPPTPASKRDCVKGSATPSGQESRTAPGEARKAATLPEMSAGEESSSSDSDPDSASPPSTGQNPSVSVQTSQDWKPTRSLIEHVFVTDVTANLITVTVKESPTSVGFFNLRHY”, “failed”; for “MFIIIGDLIAFVISVLVTLIIASVPVWVAAKIVAKRSTFGQAVAATLLSLIIFFILLFVFSIFTPFIGGIFGFIGALWVFRKVYNIGWVDSLALTIIAIFIAIMIYIILGAFLFPVIHTSMIHEHAVVTSIIV”, “failed”.
Turning to “MKRFILLSFVVLALGFYELSGGPDFDPEVARASIIDARQERELARKAALPGPVYVAAAPSAEPEVEDSVTRANLNLVSFASVVAEPEISTVTAPVAVARADTPETAPEITVKRLAAAQDEPLSLAALSPAQEPSRNVFAGSSIVASSSDINGEKNLRSVKGTRVNMRSGPGTQYDVVAQLTQSEEVEVLTDTGNGWVELRPLEGGPTGWVAEFLLTGG”, the protein production entry is “failed”.
Next, “MTSPSPDQVIRQEILALSAYHVPPAKDMVKLDAMENPYRLPPFLCEEISRIAADTSINRYPDPHAAALKEVLSTTLSVPAGMEIMLGNGSDEIIQIIMLAAAKPEAKLLTIEPGFAMFKMIATFANMQYIGIPLKPDFSLDIDRMLAAIERHQPSVIFLAYPNNPSGNLFDTSALEKIIEISPGLVVIDEAYHPFAGKSFIGRLADYPNLLVMRTLSKLGLAGLRLGLLAGRPEWLSHLEKLRLPYNVNVITQLVATKIMQHYDVLQQQADAIRQTRTRLRTFLENLNGIEVFPSNANFILFRLDGASQIFRLLQQHGILVKNLDNSHPLLKNCLRVTVGTPEENDRFCNTLQDLIAGN”: “failed”; “MLYRLEKCCTPEIRLLSTYDVCSIAIAAPMRATRSQGVWDFFWETILMAYTTAQLVTAYTNANLGKAPDAATTLTLDAYATQTQTGGLSDAAALTNTLKLVNSTTAVAIQTYQFFTGVAPSAAGLDFLVDSTTNTNDLNDAYYSKFAQENRFINFSINLATGAGAGATAFAAAYTGVSYAQTVATAYDKIIGNAVATAAGVDVAAAVAFLSRQANIDYLTAFVRANTPFTAAADIDLAVKAALIGTILNAATVSGIGGYATATAAMINDLSDGALSTDNAAGVNLFTAYPSSGVSGSTLSLTTGTDTLTGTANNDTFVAGEVAGAATLTVGDTLSGGAGTDVLNWVQAAAVTALPTGVTISGIETMNVTSGAAITLNTSSGVTGLTALNTNTSGAAQTVTAGAGQNLTATTAAQAANNVAVDGGANVTVASTGVTSGTTTVGANSAASGTVSVSVANSSTTTTGAIAVTGGTAVTVAQTAGNAVNTTLTQADVTVTGNSSTTAVTVTQTAAATAGATVAGRVNGAVTITDSAAASATTAGKIATVTLGSFGAATIDSSALTTVNLSGTGTSLGIGRGALTATPTANTLTLNVNGLTTTGAITDSEAAADDGFTTINIAGSTASSTIASLVAADATTLNISGDARVTITSHTAAALTGITVTNSVGATLGAELATGLVFTGGAGADSILLGATTKAIVMGAGDDTVTVSSATLGAGGSVNGGDGTDVLVANVNGSSFSADPAFGGFETLRVAGAAAQGSHNANGFTALQLGATAGATTFTNVAVNVGLTVLAAPTGTTTVTLANATGTSDVFNLTLSSSAALAAGTVALAGVETVNIAATDTNTTAHVDTLTLQATSAKSIVVTGNAGLNLTNTGNTAVTSFDASAVTGTGSAVTFVSANTTVGEVVTIRGGAGADSLTGSATANDTIIGGAGADTLVYTGGTDTFTGGTGADIFDINAIGTSTAFVTITDAAVGDKLDLVGISTNGAIADGAFGAAVTLGAAATLAQYLDAAAAGDGSGTSVAKWFQFGGDTYVVVDSSAGATFVSGADAVIKLTGLVTLTTSAFATEVLTLA”: “failed”; “MAKRKKKEVFDWEDEDQEEIIWVSKSEIKRDAEDLKQLGEKIVNLTKANLAKIPLDESLLDAIELAQRLQKEARRRQLQYIGKLFRGIDVEPIREALDKIENKHNQQQAMLHKIEKVRDELVEKGDVALTDLLNDYPNGDRQQLRNLIRSAQKELEQNKPSKAYREIYQMLKVLMLED”: “failed”.
